# Legend:
# DRB4*0101 (DRw53) = target: T1, DRB4*0101 (DRw53) (Homo sapiens, UniProt P01903+P13762, G164S); test: HLA class II peptide binding assay (pH 5.0); conditions: for DRw53 binding data: Table XIXb
# T1 construct: expressed in transfected cells; host or cells: L257.6 (fibroblasts)
# DRB1*0802 (DR8w2) = target: T2, DRB1*0802 (DR8w2) (Homo sapiens, UniProt P01903+P01911, A100R/A103L/A169T/F76Y/H45Y/I96F/K41T/L162R/M171V/P40S/Q125H/Q178H/Q39Y/Q99D/R218S/R42G/S66Y/V115G/W38E); test: biochemical; assay type: binding
# T2 construct: endogenous in cells; host or cells: OLL
# DRB1*0701 (DR7) = target: T3, DRB1*0701 (DR7) (Homo sapiens, UniProt P01903+P01911, A100R/A102G/A103Q/D57E/D86V/E43K/F76Y/K127E/L162R/M171V/P40G/Q125H/Q99D/R33Q/R42Y/R54Q/S133A/S66F/T210M/V115G/Y107V/Y59L/Y89S); test: biochemical; assay type: binding
# T3 construct: endogenous in cells; host or cells: Pitout
# DRB1*1201 (DR5w12) = target: T4, DRB1*1201 (DR5w12) (Homo sapiens, UniProt P01903+P01911, A100R/A169T/D57E/D86V/F55L/H45Y/K41T/L162R/M171V/P40S/Q125H/Q178H/Q39Y/Q99D/R42G/S66L/T262R/V114A/V67L/W38E/Y59H/Y61H/Y89S); test: HLA class II peptide binding assay; conditions: for DR5w12 binding information: DR3a motif peptides, unit not given, exemplary 15-mer containing the core sequence; for DR5w12 binding data: Table XIXb
# T4 construct: endogenous in cells; host or cells: Herluf
# DRB1*0301 (DR3) = target: T5, DRB1*0301 (DR3) (Homo sapiens, UniProt P01903+P01911, A100K/A102G/A103R/A169T/F55Y/I96L/K41T/L162R/M171V/P40S/Q125H/Q178H/Q39Y/R42S/S66N/T106N/T262R/W38E/Y61H); test: HLA class II peptide binding assay (pH 4.5); conditions: unit not given
# T5 construct: endogenous in cells; host or cells: MAT
# DRB1*0405 (DR4w15) = target: T6, DRB1*0405 (DR4w15) (Homo sapiens, UniProt P01903+P01911, A100R/A169T/D86S/F76Y/I96L/K127E/L162R/M171V/N62H/P40V/Q125Y/R42H/S133A/S149N/S66Y/V115G/V209L/W38E); test: HLA class II peptide binding assay; conditions: for DR4w15 binding information: DR3a motif peptides, unit not given, exemplary 15-mer containing the core sequence; for DR4w15 binding data: Table XIXb
# T6 construct: endogenous in cells; host or cells: KT3
# DRB5*0101 (DR2w2β2) = target: T7, DRB5*0101 (DR2w2β2) (Homo sapiens, UniProt P01903+Q30154); assay type: binding
# T7 construct: expressed in transfected cells; host or cells: L416.3 (fibroblasts) or GM3107
# DRB1*0101 (DR1) = target: T8, DRB1*0101 (DR1) (Homo sapiens, UniProt P01903+P01911, A100R/D57E/F55L/F60I/F76Y/I96L/L162R/M171V/P40L/Q125E/R42F/V115G/Y59C); test: HLA class II peptide binding assay; conditions: for DR1 binding information: DR3a motif peptides, unit not given, exemplary 15-mer containing the core sequence; for DR1 binding data: Table XIXb, Malaria Super Motif Peptides With Binding Data
# T8 construct: endogenous in cells; host or cells: LG2
# DRB1*0401 (DR4w4) = target: T9, DRB1*0401 (DR4w4) (Homo sapiens, UniProt P01903+P01911, A100K/A169T/F76Y/I96L/K127E/L162R/M171V/N62H/P40V/Q125Y/R42H/S133A/S149N/S66Y/V115G/V209L/W38E); test: HLA class II peptide binding assay; conditions: for DR4w4 binding information: DR3a motif peptides, unit not given, exemplary 15-mer containing the core sequence; for DR4w4 binding data: Table XIXb
# T9 construct: endogenous in cells; host or cells: Preiss
# DRB1*1101 (DR5w11) = target: T10, DRB1*1101 (DR5w11) (Homo sapiens, UniProt P01903+P01911, A100R/A169T/A87E/I96F/K41T/L162R/M171V/P40S/Q125H/Q178H/Q39Y/Q99D/R42S/S66Y/T262R/V115G/W38E); test: biochemical; assay type: binding
# T10 construct: endogenous in cells; host or cells: Sweig
# HLA-A*1101 = HLA-A*1101 (Homo sapiens, UniProt P04439, A114D/D185E/E176A/F33Y/L180Q/S129P/T187R); test: HLA class I peptide binding assay; conditions: Table XVII
# HLA-A*0301 = target: T11, HLA-A*0301 (Homo sapiens, UniProt P04439); test: HLA class I peptide binding assay; conditions: for A*0301 (binding information): Table XVI, Malaria A3 motif peptides
# T11 construct: endogenous in cells; host or cells: GM3107
# [1] = DR3a motif peptides, exemplary 15-mer containing the core sequence
# [2] = malaria A11 motif peptides, binding value unit not given
# [3] = Malaria A11 motif peptides, binding value for HLA-A*1101, unit not given
# [4] = Malaria A11 motif peptides, HLA-A*1101 binding value, unit not given
# T10 sequence (P01903 26-254, other chains not shown): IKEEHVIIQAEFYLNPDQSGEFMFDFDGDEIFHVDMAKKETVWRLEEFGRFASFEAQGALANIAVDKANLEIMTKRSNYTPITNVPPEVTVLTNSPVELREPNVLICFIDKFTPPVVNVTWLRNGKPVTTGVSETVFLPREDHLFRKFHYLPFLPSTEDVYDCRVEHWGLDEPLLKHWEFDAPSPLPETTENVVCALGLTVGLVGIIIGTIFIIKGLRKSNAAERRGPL
# T8 sequence (P01903 26-254 partner, other chains not shown): as the sequence (P01903 26-254, other chains not shown) above
# T9 sequence (P01903 26-254 partner, other chains not shown): as the sequence (P01903 26-254, other chains not shown) above
substance,measurement,setting,value
LERTKASKE,DRw53 binding data,DRB4*0101 (DRw53),-0.0005
same,DR8w2 binding data,DRB1*0802 (DR8w2),-0.0003
same,DR7 binding data,DRB1*0701 (DR7),0.0010
VEVEKTASC,DRw53 binding information,"DRB4*0101 (DRw53); DR3a motif peptides, unit not given, exemplary 15-mer containing the core sequence",0.0022
same,DR5w12 binding information,DRB1*1201 (DR5w12),0.0001
same,DR3 binding information,DRB1*0301 (DR3); [1],-0.0041
same,DR4w15 binding information,DRB1*0405 (DR4w15),-0.0014
same,DR8w2 binding information,DRB1*0802 (DR8w2),0.0006
same,DR2w2β2 binding information,DRB5*0101 (DR2w2β2),-0.0006
same,DR7 binding information,DRB1*0701 (DR7),0.0073
same,DR1 binding information,DRB1*0101 (DR1),0.0001
same,DR4w4 binding information,DRB1*0401 (DR4w4),0.0030
same,DR5w11 binding information,DRB1*1101 (DR5w11),0.0003
CCKGIRSRKR,A*1101 binding information,HLA-A*1101; [2],0.0002
LAMKLIQQL,DRw53 binding data,DRB4*0101 (DRw53),0.0350
same,DR5w12 binding data,DRB1*1201 (DR5w12),0.1300
same,DR4w15 binding data,DRB1*0405 (DR4w15),0.0013
same,DR8w2 binding data,DRB1*0802 (DR8w2),0.0400
same,DR2w2β2 binding data,DRB5*0101 (DR2w2β2),-0.0006
same,DR7 binding data,DRB1*0701 (DR7),0.0770
same,DR1 binding data,DRB1*0101 (DR1),0.0015
same,DR4w4 binding data,DRB1*0401 (DR4w4),0.0023
same,DR5w11 binding data,DRB1*1101 (DR5w11),0.0002
VDELSEDTK,A*1101 binding information,HLA-A*1101; [2],0.0002
YLLMDCSGS,DRw53 binding data,DRB4*0101 (DRw53),-0.0010
same,DR5w12 binding data,DRB1*1201 (DR5w12),0.0001
same,DR4w15 binding data,DRB1*0405 (DR4w15),-0.0014
same,DR8w2 binding data,DRB1*0802 (DR8w2),0.0007
same,DR2w2β2 binding data,DRB5*0101 (DR2w2β2),0.0096
same,DR7 binding data,DRB1*0701 (DR7),0.0046
same,DR1 binding data,DRB1*0101 (DR1),0.0015
same,DR4w4 binding data,DRB1*0401 (DR4w4),0.0150
same,DR5w11 binding data,DRB1*1101 (DR5w11),-0.0004
VWDEWSPCS,DR5w12 binding information,DRB1*1201 (DR5w12),0.0001
same,DR3 binding information,DRB1*0301 (DR3); [1],-0.0041
same,DR4w15 binding information,DRB1*0405 (DR4w15),-0.0009
same,DR8w2 binding information,DRB1*0802 (DR8w2),-0.0003
same,DR2w2β2 binding information,DRB5*0101 (DR2w2β2),-0.0005
same,DR7 binding information,DRB1*0701 (DR7),-0.0003
same,DR1 binding information,DRB1*0101 (DR1),0.0001
same,DR4w4 binding information,DRB1*0401 (DR4w4),-0.0009
same,DR5w11 binding information,DRB1*1101 (DR5w11),-0.0002
KSLYDEHIIK,A*1101 binding information,HLA-A*1101; [3],0.0340
FLKENKLNK,DR3 binding information,DRB1*0301 (DR3); Malaria DR3b motif peptides,0.0950
same,A*301 (binding data),"HLA-A*0301; Malaria A03 supermotif peptides, binding value, no unit given",0.0260
same,A*0301 (binding information),"HLA-A*0301; HLA-A*0301 binding value, unit not given",0.0260
same,A*1101 binding information,HLA-A*1101; [3],0.0005
TCGKGIRSRK,A*1101 binding information,HLA-A*1101; [2],0.0002
SVTCGKOTFt (SVTCGKGTR),A*1101 binding information,HLA-A*1101; [2],0.0009
FDEILGEEDK,A*1101 binding information,HLA-A*1101; [2],0.0002
LALLACAGL,DRw53 binding data,DRB4*0101 (DRw53),-0.0005
same,DR5w12 binding data,DRB1*1201 (DR5w12),0.0051
same,DR4w15 binding data,DRB1*0405 (DR4w15),-0.0014
same,DR8w2 binding data,DRB1*0802 (DR8w2),0.0003
same,DR2w2β2 binding data,DRB5*0101 (DR2w2β2),0.0013
same,DR7 binding data,DRB1*0701 (DR7),0.0009
same,DR1 binding data,DRB1*0101 (DR1),0.0018
same,DR4w4 binding data,DRB1*0401 (DR4w4),-0.0007
same,DR5w11 binding data,DRB1*1101 (DR5w11),-0.0002
EMADCTNK,A*1101 binding information,HLA-A*1101; [4],0.0002
NSEDRETPPH,A*1101 binding information,HLA-A*1101; [2],0.0002
LGVSENTIFLK,A*1101 binding information,HLA-A*1101; [3],0.0063
FVEALFQEY,A*1101 binding information,HLA-A*1101; [4],0.0003
QCEEERCPPK,A*0301 (binding information),"HLA-A*0301; binding value to HLA-A*0301, unit not given",0.0004
same,A*1101 binding information,HLA-A*1101; [2],0.0002
WSPCSVTCGK,A*1101 binding information,HLA-A*1101; [2],0.0002

# — patent US20160193316A1 (priority 1994, published 2016)
